Measured values as given in patent US20140288007A1.
Values joined by “and” are separate entries in the source; they are usually repeats but may differ in a detail not shown here. Equal entries are not always repeated.

What was measured:
[1] = target: KgpcatΔABM1 (enriched fraction from P. gingivalis mutant ECR368) (Porphyromonas gingivalis) (UniProt Q51817); test: cell-based or functional assay
[2] = target: KgpcatΔABM1 (enriched fraction from P. gingivalis mutant ECR368) (Porphyromonas gingivalis) (UniProt Q51817); test: enzyme inhibition kinetics (non-competitive, Ki′), chromogenic substrate GPKNa, secondary plot of Vmax observed against inhibitor concentration

Substance	inhibition of KgpcatΔABM1 activity, chromogenic substrate GPKNa [1]	inhibition of KgpcatΔABM1 enriched fraction activity, fluorescent BSA substrate (DQ BSA), 2 h [1] [%]	Ki [2] [nM]	% Proteolytic Activity (GPKNa; inhibitor 50 mg/L) [1] [%]
recombinant Kgp propeptide (from UniProt Q51817 25-1732)	75% and 60%	66	2010	
recombinant RgpB propeptide (from UniProt P95493 25-229)				118
